Columns and labels:
Fes = Fes (UniProt P07332); test: phosphorylation enrichment, bacterial display (enrichment ratio); higher = better substrate or ligand; peptides without Tyr show the background
FGFR1 = FGFR1 (UniProt P11362); test: as above
c-Abl (mouse) = test: as above
Hck = Hck (UniProt P08631); test: as above
Jak2 = Jak2 (UniProt O60674); test: as above
Fer (mouse) = test: as above
EPHB1 = EPHB1 (UniProt P54762); test: as above
MERTK = MERTK (UniProt Q12866); test: as above
EPHB2 = EPHB2 (UniProt P29323); test: as above
FGFR3 = FGFR3 (UniProt P22607); test: as above
AncSZ = test: as above
Fyn = Fyn (UniProt P06241); test: as above
c-Src = test: as above
Grb2 SH2 = Grb2 SH2 (UniProt P62993); test: SH2 binding enrichment of the phosphorylated peptide, bacterial display (enrichment ratio); higher = better substrate or ligand; peptides without Tyr show the background
c-Src SH2 = test: as above
SHP2-C SH2 = test: as above
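Throughout, for SH2 binding enrichment of the phosphorylated peptide, bacterial display: peptide library displayed on the E. coli surface as eCPX fusions, selected cells deep-sequenced, score is each peptide's frequency after selection divided by its frequency in the input.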
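Throughout, for phosphorylation enrichment, bacterial display: 11-residue human phosphosite peptides and single-mutation variants displayed on the E. coli surface, counted by deep sequencing, each peptide's frequency after selection divided by its frequency in the unselected input library; frequency after pTyr selection over input frequency; kinase dosed for 20-30% of maximal phosphorylation in three min.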

Chain of Fes (P07332 whole entry, looked up): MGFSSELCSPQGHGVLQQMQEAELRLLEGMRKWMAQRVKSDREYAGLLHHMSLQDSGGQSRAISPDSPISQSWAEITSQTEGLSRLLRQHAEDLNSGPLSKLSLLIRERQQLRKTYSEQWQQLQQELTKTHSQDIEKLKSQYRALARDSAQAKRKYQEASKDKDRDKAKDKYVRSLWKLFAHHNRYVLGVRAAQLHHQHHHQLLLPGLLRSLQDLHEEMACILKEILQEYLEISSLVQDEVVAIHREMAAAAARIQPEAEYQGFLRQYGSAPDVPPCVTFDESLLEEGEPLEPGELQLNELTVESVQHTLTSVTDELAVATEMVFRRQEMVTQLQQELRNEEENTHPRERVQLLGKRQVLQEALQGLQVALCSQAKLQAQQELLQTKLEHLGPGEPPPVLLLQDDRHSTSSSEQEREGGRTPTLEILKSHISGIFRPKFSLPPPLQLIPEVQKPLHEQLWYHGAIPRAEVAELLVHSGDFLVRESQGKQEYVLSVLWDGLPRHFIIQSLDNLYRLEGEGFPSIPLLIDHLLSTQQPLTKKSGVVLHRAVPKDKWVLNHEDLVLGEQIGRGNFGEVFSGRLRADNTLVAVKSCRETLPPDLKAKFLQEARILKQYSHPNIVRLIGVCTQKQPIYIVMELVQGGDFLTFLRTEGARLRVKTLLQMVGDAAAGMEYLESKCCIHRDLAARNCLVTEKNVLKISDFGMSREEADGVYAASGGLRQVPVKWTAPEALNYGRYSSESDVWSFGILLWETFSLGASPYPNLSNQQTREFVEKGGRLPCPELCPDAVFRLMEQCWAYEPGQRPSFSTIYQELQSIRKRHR
Chain of FGFR3 (P22607 whole entry, looked up): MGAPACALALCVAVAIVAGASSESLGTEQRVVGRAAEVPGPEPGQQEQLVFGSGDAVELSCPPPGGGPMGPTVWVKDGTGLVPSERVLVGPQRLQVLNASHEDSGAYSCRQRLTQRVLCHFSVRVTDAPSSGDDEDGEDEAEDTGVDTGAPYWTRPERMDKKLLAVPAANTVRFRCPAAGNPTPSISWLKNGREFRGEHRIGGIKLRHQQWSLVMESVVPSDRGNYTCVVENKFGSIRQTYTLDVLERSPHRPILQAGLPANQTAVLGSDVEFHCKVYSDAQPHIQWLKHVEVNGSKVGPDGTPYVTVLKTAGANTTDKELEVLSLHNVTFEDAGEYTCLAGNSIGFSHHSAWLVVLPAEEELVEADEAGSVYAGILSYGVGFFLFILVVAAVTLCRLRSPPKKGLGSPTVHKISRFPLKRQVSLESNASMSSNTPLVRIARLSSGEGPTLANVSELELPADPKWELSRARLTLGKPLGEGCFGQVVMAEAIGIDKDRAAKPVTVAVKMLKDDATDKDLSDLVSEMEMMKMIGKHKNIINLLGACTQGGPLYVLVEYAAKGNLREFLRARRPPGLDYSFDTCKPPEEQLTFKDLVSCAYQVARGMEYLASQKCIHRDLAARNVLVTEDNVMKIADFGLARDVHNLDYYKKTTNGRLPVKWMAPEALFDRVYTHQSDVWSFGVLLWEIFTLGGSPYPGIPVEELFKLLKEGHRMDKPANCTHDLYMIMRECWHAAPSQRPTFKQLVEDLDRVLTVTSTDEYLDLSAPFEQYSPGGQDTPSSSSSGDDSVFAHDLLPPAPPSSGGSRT
Chain of Fyn (P06241 whole entry, looked up): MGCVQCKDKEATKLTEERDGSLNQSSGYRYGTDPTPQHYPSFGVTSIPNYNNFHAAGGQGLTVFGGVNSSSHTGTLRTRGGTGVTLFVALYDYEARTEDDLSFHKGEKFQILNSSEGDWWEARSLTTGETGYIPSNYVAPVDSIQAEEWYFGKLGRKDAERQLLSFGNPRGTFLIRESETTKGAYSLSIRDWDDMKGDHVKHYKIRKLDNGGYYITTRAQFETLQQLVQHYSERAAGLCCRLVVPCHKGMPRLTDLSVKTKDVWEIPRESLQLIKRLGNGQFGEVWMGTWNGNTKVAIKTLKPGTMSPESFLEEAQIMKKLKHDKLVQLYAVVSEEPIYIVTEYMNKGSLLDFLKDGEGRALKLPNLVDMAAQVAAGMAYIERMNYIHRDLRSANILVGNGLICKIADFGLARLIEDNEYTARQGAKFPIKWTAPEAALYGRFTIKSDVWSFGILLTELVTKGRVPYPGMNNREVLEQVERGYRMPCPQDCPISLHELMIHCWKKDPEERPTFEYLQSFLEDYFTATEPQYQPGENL
Chain of MERTK (Q12866 whole entry, looked up): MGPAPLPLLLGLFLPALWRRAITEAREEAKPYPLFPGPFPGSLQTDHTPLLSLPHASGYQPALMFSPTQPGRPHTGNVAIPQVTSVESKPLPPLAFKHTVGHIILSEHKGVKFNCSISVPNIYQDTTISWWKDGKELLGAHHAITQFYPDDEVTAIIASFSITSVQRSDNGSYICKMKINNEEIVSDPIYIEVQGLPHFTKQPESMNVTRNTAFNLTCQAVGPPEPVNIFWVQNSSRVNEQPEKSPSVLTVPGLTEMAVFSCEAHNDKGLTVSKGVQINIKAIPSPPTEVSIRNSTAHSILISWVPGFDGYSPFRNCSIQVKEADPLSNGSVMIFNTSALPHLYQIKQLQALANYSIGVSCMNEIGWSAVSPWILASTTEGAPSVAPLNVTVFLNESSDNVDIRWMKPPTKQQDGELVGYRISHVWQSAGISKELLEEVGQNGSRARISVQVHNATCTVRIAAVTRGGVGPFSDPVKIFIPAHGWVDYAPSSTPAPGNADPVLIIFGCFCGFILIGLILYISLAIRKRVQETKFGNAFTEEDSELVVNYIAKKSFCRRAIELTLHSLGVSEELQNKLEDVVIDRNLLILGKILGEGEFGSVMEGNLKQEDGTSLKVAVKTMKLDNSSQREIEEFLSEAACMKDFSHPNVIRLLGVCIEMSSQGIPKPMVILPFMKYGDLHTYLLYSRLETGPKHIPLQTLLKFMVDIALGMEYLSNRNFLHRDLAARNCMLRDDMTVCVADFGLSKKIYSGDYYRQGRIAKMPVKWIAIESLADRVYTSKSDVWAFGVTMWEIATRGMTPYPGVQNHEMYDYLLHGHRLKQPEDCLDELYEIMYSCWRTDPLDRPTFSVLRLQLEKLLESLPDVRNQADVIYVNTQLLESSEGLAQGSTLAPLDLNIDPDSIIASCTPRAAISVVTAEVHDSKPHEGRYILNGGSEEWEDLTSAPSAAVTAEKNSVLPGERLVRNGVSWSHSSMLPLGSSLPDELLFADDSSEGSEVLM
Chain of Jak2 (O60674 whole entry, looked up): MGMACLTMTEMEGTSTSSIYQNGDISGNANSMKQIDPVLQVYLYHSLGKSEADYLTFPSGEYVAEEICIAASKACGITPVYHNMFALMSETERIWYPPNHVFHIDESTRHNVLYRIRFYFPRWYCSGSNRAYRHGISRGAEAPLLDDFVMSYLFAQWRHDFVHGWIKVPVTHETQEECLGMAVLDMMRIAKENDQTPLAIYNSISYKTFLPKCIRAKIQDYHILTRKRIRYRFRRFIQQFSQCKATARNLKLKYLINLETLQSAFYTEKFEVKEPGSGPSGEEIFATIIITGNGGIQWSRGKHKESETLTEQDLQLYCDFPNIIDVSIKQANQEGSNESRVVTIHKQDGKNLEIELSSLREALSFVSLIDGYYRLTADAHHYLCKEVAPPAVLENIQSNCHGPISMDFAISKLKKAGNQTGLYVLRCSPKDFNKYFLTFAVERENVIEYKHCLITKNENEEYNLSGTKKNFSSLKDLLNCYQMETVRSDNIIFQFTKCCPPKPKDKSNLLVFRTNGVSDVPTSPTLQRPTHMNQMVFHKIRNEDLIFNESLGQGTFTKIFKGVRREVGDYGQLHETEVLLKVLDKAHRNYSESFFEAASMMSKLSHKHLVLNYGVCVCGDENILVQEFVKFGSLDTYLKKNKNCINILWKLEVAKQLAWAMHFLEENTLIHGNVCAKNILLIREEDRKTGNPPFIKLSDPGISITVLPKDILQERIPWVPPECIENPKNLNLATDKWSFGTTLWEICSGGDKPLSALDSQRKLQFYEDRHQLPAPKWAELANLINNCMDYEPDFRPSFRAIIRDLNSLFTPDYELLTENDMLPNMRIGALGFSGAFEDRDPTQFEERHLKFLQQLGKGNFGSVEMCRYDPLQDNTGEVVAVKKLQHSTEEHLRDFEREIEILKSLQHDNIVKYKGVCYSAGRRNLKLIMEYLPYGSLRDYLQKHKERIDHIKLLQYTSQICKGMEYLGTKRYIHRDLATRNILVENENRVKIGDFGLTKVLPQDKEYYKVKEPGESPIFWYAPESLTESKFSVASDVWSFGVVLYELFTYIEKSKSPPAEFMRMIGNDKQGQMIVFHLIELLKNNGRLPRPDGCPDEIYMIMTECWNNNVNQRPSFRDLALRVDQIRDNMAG
Chain of Hck (P08631 whole entry, looked up): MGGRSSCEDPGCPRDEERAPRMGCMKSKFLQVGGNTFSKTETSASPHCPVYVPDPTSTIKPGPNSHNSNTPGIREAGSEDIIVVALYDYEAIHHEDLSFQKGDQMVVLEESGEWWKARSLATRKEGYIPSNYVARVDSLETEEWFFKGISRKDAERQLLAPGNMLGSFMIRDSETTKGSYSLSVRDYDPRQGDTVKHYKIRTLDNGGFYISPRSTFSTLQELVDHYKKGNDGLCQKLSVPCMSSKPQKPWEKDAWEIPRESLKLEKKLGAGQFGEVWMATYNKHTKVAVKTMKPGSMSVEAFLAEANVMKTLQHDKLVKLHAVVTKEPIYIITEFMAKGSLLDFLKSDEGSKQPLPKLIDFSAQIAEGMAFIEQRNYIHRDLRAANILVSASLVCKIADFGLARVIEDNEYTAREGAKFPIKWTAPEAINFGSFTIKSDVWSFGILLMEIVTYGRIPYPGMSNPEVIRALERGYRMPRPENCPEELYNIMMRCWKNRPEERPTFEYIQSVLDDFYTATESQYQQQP

| SH2 binding enrichment (Grb2 SH2) | SH2 binding enrichment (c-Src SH2) | SH2 binding enrichment (SHP2-C SH2) | Sequence | phosphorylation enrichment (Fes) | phosphorylation enrichment (FGFR1) | phosphorylation enrichment (c-Abl (mouse)) | phosphorylation enrichment (Hck) | phosphorylation enrichment (Jak2) | phosphorylation enrichment (Fer (mouse)) | phosphorylation enrichment (EPHB1) | phosphorylation enrichment (MERTK) | phosphorylation enrichment (EPHB2) | phosphorylation enrichment (FGFR3) | phosphorylation enrichment (AncSZ) | phosphorylation enrichment (Fyn) | phosphorylation enrichment (c-Src) |
| --- | --- | --- | --- | --- | --- | --- | --- | --- | --- | --- | --- | --- | --- | --- | --- | --- |
| 0.775 | 0.655 | 0.647 | HEHKGYNANFC [TGFB2_Y341_P338H] | 0.928 | 0.7 | 0.464 | 0.832 | 0.642 | 0.698 | 0.505 | 0.612 | 0.727 | 0.951 | 0.603 | 0.659 | 0.542 |
| 0.619 | 0.432 | 0.49 | HFECKYVINAI [MAOA_Y268_YF] | 1.87 | 0.627 | 1.23 | 0.566 | 1.47 | 0.502 | 1.14 | 0.529 | 0.762 | 0.998 | 2.43 | 0.709 | 0.648 |
| 0.711 | 3.44 | 3.84 | HFGNNYTDVLQ [MACC1_Y803_R804T_YF] | 0.967 | 0.544 | 0.761 | 0.426 | 0.578 | 0.573 | 1.61 | 0.638 | 0.471 | 0.733 | 0.874 | 0.517 | 0.66 |
| 0.994 | 4.04 | 0.897 | HGEAYYSEVKA [PAK5_Y182_P187A] | 0.773 | 2.83 | 0.506 | 2.47 | 1.98 | 3.92 | 0.926 | 4.12 | 0.563 | 1.85 | 1.04 | 1.68 | 2.22 |
| 0.546 | 10.6 | 0.546 | HGVSSYDTIIS [LDLR_Y465_V468I] | 1.08 | 0.944 | 1.63 | 0.738 | 1.08 | 0.712 | 0.827 | 0.797 | 0.819 | 0.785 | 1.06 | 0.669 | 1.03 |
| 0.85 | 4.51 | 0.715 | HIKHNYECLVF [XRCC5_Y416_YF] | 1.09 | 0.796 | 0.4 | 0.821 | 0.547 | 0.665 | 1.86 | 0.382 | 1.44 | 1.09 | 1.31 | 0.709 | 0.53 |
| 20.1 | 4 | 2.63 | HLGNQYVNVMN [SLC3A1_Y461_R456H] | 0.902 | 0.735 | 0.764 | 0.85 | 0.618 | 0.603 | 0.565 | 0.29 | 0.477 | 0.643 | 0.905 | 0.483 | 0.471 |
| 0.619 | 1.8 | 0.752 | HNLYSYPTKHE [MYO3A_Y1396] | 1.18 | 0.782 | 3.28 | 8.1 | 0.561 | 15.2 | 11.6 | 13.6 | 16 | 0.838 | 3.92 | 5.22 | 2.96 |
| 0.91 | 0.484 | 0.587 | HSDYQYSQRSQ [PKP2_Y168] | 0.587 | 0.344 | 0.749 | 0.353 | 1.11 | 0.365 | 0.495 | 0.501 | 0.645 | 0.377 | 0.821 | 0.39 | 0.519 |
| 0.691 | 0.568 | 1.79 | HYGNNYRDVLQ [MACC1_Y803] | 0.576 | 0.444 | 0.438 | 0.694 | 0.661 | 0.565 | 0.643 | 0.612 | 0.559 | 0.423 | 0.622 | 0.353 | 0.652 |
| 0.779 | 0.478 | 0.57 | IDGLEYLHSQG [STK11_Y166] | 0.906 | 0.445 | 0.574 | 0.413 | 0.796 | 0.426 | 0.578 | 0.368 | 0.499 | 0.637 | 0.737 | 0.619 | 0.417 |
| 0.703 | 0.849 | 0.607 | IDSTPYGQWYE [RPS8_Y109_R110G] | 1.18 | 0.741 | 0.719 | 1.37 | 0.984 | 1.13 | 0.596 | 0.526 | 0.612 | 0.701 | 1.12 | 2.59 | 3.33 |
| 0.868 | 4.8 | 26.8 | IGHGSYAKVLL [PRKCZ_Y263_R260H] | 0.805 | 0.517 | 0.599 | 0.523 | 0.662 | 0.68 | 0.536 | 0.57 | 0.656 | 0.635 | 0.728 | 0.624 | 0.454 |
| 0.834 | 0.542 | 0.81 | IIGNGYYFHVF [MYBPC3_Y1135_R1138H] | 1.22 | 0.587 | 0.667 | 0.396 | 1.19 | 0.491 | 0.518 | 0.288 | 0.559 | 0.803 | 0.946 | 0.349 | 0.362 |
| 0.86 | 0.595 | 0.687 | IINENYDYLKV [NUP98_Y1664_G1669V] | 1.1 | 1.54 | 0.664 | 1.89 | 0.956 | 2.24 | 1.05 | 0.919 | 1.31 | 1.16 | 1.38 | 0.538 | 0.625 |
| 1.45 | 1.37 | 1.56 | IITVHYVLEES [RYR2_Y4559_A4556T] | 1.22 | 0.594 | 0.794 | 0.517 | 1.02 | 0.579 | 0.777 | 0.498 | 0.577 | 0.831 | 1.17 | 0.53 | 0.523 |

Second part, the sequence before the results:

| Sequence | SH2 binding enrichment (Grb2 SH2) | SH2 binding enrichment (c-Src SH2) | SH2 binding enrichment (SHP2-C SH2) | phosphorylation enrichment (Fes) | phosphorylation enrichment (FGFR1) | phosphorylation enrichment (c-Abl (mouse)) | phosphorylation enrichment (Hck) | phosphorylation enrichment (Jak2) | phosphorylation enrichment (Fer (mouse)) | phosphorylation enrichment (EPHB1) | phosphorylation enrichment (MERTK) | phosphorylation enrichment (EPHB2) | phosphorylation enrichment (FGFR3) | phosphorylation enrichment (AncSZ) | phosphorylation enrichment (Fyn) | phosphorylation enrichment (c-Src) |
| --- | --- | --- | --- | --- | --- | --- | --- | --- | --- | --- | --- | --- | --- | --- | --- | --- |
| HELYVYKCDEN [DOCK3_Y548] | 1.03 | 0.796 | 0.939 | 1.19 | 0.957 | 0.6 | 0.99 | 1.29 | 0.719 | 0.762 | 0.549 | 0.862 | 1.05 | 1.48 | 0.761 | 1.38 |
| HHFAAYFQQGD [GPI_Y351_R347H] | 1.21 | 0.661 | 0.898 | 1.13 | 0.669 | 0.945 | 0.549 | 0.989 | 0.435 | 0.581 | 0.475 | 0.602 | 1.19 | 0.906 | 0.418 | 0.725 |
| HLRAGYIIPLQ [GAA_Y822] | 1.66 | 1.66 | 3.2 | 0.753 | 0.367 | 0.681 | 0.268 | 0.671 | 0.257 | 0.398 | 0.355 | 0.453 | 0.534 | 0.668 | 0.417 | 0.327 |
| HNLDYYKMTTN [FGFR3_Y648_K650M] | 0.756 | 0.757 | 1 | 1.04 | 17.7 | 0.591 | 0.607 | 11.2 | 0.64 | 2.13 | 0.68 | 1.2 | 14 | 1.91 | 0.454 | 0.894 |
| HSHTRYERNIE [F2_Y434_R431H] | 1.2 | 0.843 | 1.12 | 0.85 | 0.62 | 0.694 | 0.477 | 0.47 | 0.655 | 0.67 | 0.5 | 0.387 | 0.555 | 0.766 | 0.446 | 0.795 |
| HTVEDYQAIVD [CCT7_Y263] | 0.816 | 0.465 | 0.807 | 2.21 | 0.818 | 1.68 | 0.794 | 1.67 | 0.85 | 0.882 | 0.734 | 0.936 | 1.06 | 1.73 | 0.773 | 0.836 |
| HTVVSYAKVRA [CLOCK_Y378_E380K] | 1.11 | 1.12 | 14.5 | 1.3 | 0.917 | 0.65 | 0.85 | 1.04 | 0.673 | 0.749 | 0.934 | 0.972 | 0.933 | 1.2 | 1.23 | 0.489 |
| HVSISYDIPLT [GAB1_Y307_P311L] | 0.96 | 3.72 | 0.91 | 2.15 | 1.09 | 1.96 | 0.99 | 1.86 | 1.12 | 1.19 | 4.9 | 1.48 | 1.53 | 3.56 | 1.31 | 1.01 |
| IDDNEYAFLKA [HNF4A_Y286_YF] | 0.79 | 0.469 | 0.546 | 1.32 | 1.44 | 0.922 | 0.98 | 1.13 | 0.659 | 0.652 | 0.538 | 0.597 | 1.43 | 1.54 | 0.8 | 0.728 |
| IFSGIYFKPES [L2HGDH_Y102_H98Y_YF] | 1.05 | 0.77 | 0.981 | 0.78 | 1.3 | 11.2 | 2.64 | 6.32 | 0.459 | 1.84 | 6 | 1.35 | 1.4 | 1.51 | 2.7 | 3.26 |
| IGEGTYGQVYK [CDK13_Y716] | 0.667 | 0.471 | 0.944 | 0.822 | 0.553 | 0.593 | 11.8 | 0.822 | 0.813 | 0.889 | 0.714 | 1.59 | 0.508 | 0.605 | 13.5 | 9.38 |
| IGGHAYGDQFR [IDH1_Y135_R132G_YF] | 0.826 | 0.571 | 0.852 | 0.567 | 0.351 | 0.418 | 0.36 | 0.499 | 0.259 | 0.3 | 0.306 | 0.324 | 0.405 | 0.464 | 0.296 | 0.317 |
| IGKAGYTDKMV [ENO1_Y236_V240M] | 0.82 | 0.513 | 1.47 | 0.545 | 0.377 | 0.407 | 0.376 | 0.52 | 0.3 | 0.445 | 0.372 | 0.352 | 0.367 | 0.523 | 0.33 | 0.336 |
| IHETTYNSIKK [ACTA1_Y281_M285K] | 0.673 | 1.05 | 1.63 | 0.689 | 0.467 | 0.455 | 0.69 | 0.532 | 0.35 | 0.382 | 0.369 | 0.403 | 0.482 | 0.449 | 0.391 | 0.442 |
| IKIMGSSIRTI [IDS_Y490_Y490S] | 0.836 | 0.533 | 0.717 | 0.53 | 0.502 | 0.526 | 0.435 | 0.492 | 0.387 | 0.436 | 0.424 | 0.393 | 0.45 | 0.557 | 0.411 | 0.414 |
| IKKFKYRIEEH [GJA1_Y137_G138R] | 0.847 | 0.557 | 0.77 | 0.83 | 0.402 | 0.449 | 0.336 | 0.717 | 0.361 | 0.392 | 0.345 | 0.389 | 0.495 | 0.653 | 0.398 | 0.363 |
| IKRIDYEFVEM [ADA_Y84_A83D] | 0.967 | 0.5 | 0.56 | 1.18 | 1.02 | 0.622 | 0.477 | 0.932 | 1.82 | 6.08 | 0.375 | 3.22 | 0.742 | 0.89 | 0.469 | 0.404 |

From the supplement of paper PMC10065799, “High-throughput profiling of sequence recognition by tyrosine kinases and SH2 domains using bacterial peptide display” (eLife, 2023)
